The source of these data is patent US20230059690A1 (CYTOMX THERAPEUTICS, published 2023).

One assay deals with mouse PSMA (mouse, UniProt O35409 45-752, limits assumed). Briefly: ELISA, Biacore and/or FACS (not said which for mouse). On the technique in general: An ELISA detects its analyte on a solid surface through an enzyme-linked reagent.
The next assay has as its target T1, human PSMA (human, UniProt Q04609 44-750).
T1 construct: also called hPSMA; Human PSMA dimer (DT1596)
Briefly: FACS on hPSMA (FIG. 2).

T1 sequence (Q04609 44-750 limits assumed): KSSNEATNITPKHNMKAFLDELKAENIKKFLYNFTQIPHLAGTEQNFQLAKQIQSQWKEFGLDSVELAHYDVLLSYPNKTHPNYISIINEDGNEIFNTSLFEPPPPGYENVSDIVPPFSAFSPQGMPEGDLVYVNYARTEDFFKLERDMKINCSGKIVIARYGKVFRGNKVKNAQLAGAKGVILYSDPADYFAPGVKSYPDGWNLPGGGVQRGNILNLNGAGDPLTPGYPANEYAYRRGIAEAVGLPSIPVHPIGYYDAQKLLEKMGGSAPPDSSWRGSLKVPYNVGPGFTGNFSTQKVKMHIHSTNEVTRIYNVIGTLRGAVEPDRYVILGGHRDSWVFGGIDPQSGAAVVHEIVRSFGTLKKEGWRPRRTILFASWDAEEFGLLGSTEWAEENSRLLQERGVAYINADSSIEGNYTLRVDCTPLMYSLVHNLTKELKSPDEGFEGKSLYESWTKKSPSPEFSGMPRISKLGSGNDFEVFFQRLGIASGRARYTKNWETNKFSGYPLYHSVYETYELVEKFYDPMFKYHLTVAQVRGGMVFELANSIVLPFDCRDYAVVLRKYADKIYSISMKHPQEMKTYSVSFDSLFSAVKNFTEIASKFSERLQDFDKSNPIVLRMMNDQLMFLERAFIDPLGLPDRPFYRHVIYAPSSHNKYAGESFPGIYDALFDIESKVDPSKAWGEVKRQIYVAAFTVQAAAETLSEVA
mouse PSMA, sequence (O35409 45-752 limits assumed): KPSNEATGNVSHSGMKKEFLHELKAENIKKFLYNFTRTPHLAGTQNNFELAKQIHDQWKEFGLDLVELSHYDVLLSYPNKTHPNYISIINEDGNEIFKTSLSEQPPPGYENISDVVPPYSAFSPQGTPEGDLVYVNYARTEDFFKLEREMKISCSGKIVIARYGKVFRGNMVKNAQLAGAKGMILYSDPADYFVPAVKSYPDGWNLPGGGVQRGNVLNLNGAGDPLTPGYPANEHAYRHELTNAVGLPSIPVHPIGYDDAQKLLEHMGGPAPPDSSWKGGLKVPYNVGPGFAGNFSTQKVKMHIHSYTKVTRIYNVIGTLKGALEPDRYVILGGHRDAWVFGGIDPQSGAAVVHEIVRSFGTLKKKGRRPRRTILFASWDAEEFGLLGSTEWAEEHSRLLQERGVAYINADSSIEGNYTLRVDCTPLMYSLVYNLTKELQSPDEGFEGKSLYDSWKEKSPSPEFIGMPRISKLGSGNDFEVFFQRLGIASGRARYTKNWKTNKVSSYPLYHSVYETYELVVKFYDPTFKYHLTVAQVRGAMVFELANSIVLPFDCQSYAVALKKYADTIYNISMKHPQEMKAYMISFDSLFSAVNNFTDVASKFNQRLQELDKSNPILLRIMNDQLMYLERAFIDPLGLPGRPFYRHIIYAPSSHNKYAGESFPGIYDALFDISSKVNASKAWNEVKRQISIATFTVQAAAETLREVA

B1: cHv75-2a7.G1(C99Y;L328C)k (antibody, V domains shown)
VH: EVQLVESGGGLVQPGGSLRLSCAASGITFSNYWMSWVRQAPGKGLEWVANIKKDGSEKFYVDSVKGRFTISRDNAKNSLYLQINSLRAEDTAMYYCAREIQLYLQHWGQGTLVTVSS
VL: DIQMTQSPSSVSASVGGRVTITCRASQGISNWLAWYQQKPGKAPKLLIYAASSLQSGVPSRFSGSGSGTDFTLTISNLQPEDFASYYCQQANSFPLTFGGGTKVEIKR
notes: also called [Ag]AB-5
B1: the results for the binding result with mouse PSMA and with human PSMA were “no binding” and “binds”, respectively.

B2: cHv75-2a11.G1(L328C)k (antibody, human IgG1, kappa, V domains shown)
VH: QVQLVESGGGVVQPGRSLRLSCAASGFTFSSYDMHWVRQAPGKGLEWVAVIWYDGSNKYYADSLKGRFTISRDNSKNTLYLQMNSLRAEDTAVYYCARVIAARTFYYYGMDVWGQGTTVTVSS
VL: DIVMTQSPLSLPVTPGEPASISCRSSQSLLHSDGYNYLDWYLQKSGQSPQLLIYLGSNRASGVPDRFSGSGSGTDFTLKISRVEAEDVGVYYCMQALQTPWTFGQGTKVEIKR
notes: also called [Ag]AB-4; cHv75-2a11.G1(1,328C)k
Take B2: the binding result with mouse PSMA is listed as “no binding”; in the assay with human PSMA, “binds”.
